Substrate: NC(=O)c1ccc[n+]([C@@H]2O[C@H](COP(=O)(O)OP(=O)(O)OC[C@H]3O[C@@H](n4cnc5c(N)ncnc54)[C@H](O)[C@@H]3O)[C@@H](O)[C@H]2O)c1
Test: nick closing activity; fluorescein-labelled oligonucleotide ligated to biotinylated oligonucleotide on streptavidin plate
Assay type: biochemical, Wolbachia endosymbiont of Brugia malayi
Conditions: nicked DNA duplex substrate, 20 mM Tris-HCl pH 8.0, 10 mM MgCl2, 10 mM (NH4)2SO4, 1.2 mM EDTA, 25 °C, 5 nM enzyme, NAD+ 0-30 µM, varied: cofactor

B1: wBm-LigA (NAD+-dependent DNA ligase of Wolbachia endosymbiont of Brugia malayi) (Wolbachia endosymbiont strain TRS of Brugia malayi) (protein)
chain: MADLEKMIEEFTKLRDQISYHDVLYHQKSKPEIADAEYDKLKQKLVEMEGQLPGACVTQDGVGAAPDEKFSKIKHREPMLSLENAYDEQGVERFLSRIKRFLIEEEIEVFCEPKIDGLSFSAVYEDGRFVKAATRGDGFIGEDVTRNVATIKGFPRFLQDVQDRLEVRGEIYINNSDFLKLNKDNEFANPRNAAAGSLKQLDVSITANRPLKYFAYSLIGGKEKSQSEVLNRLESLGFCVNEHRSLTNNLSGMLEFYNKVYNCRYSLDYDIDGIVYKVNDLILQSRLGSTHKAPRSALAYKFSAVYAKTKLNKIFIQVGRTGVLTPVADLIPVNIGGVLVSRANLHNQDEIKRKDVREGDIVTIKRAGDVIPQIVRVDKGSRHADAPGFVFPEICPECGGKVQAEGAAIRCSEELTCKAQIIGKLSHFVSKGAFDIFGLGEKQIKFFYDLGLIKQIPDIFNLEERLNEFSLKEQPDWGERSIANLLNAIQNRRVITLDRFIFSLGIRFIGQVAAELLANYYVSYNNWYNSMIKLLSNDAEVGVGGVEKKIAKSFSDELVGIDGIGEKVAESLKSFFSKEHNIKMLKDLTDYLQILSVNSNSSNSVLNNKVIVFTGKLLTMSRGEAKVRAKALGAKVSSNLSAKIDYLVAGEKPGNKYKKAVELGVGILNEDQWYRMINSEVSE
notes: full length, 683 residues (ORF 2052 bp), pET28a(+), His6 tags at N and C terminus kept, expressed in E. coli Rosetta, Ni-NTA purified, ~75 kDa
Km: 4.8 µM

Reference: PMC3397958, “Molecular Characterization of NAD^+-Dependent DNA Ligase from Wolbachia Endosymbiont of Lymphatic Filarial Parasite Brugia malayi” (PLoS ONE, 2012)
